In patent US20240343773A1:
Residue numbers refer to the chain shown, from its start. Ends that are not written are not given here.

B1: SEQ ID NO: 5 (ligand)
chain: FVDQHLCGSHLVEALYLVCGERGFFYTPKTYDGKGIVEQCCTSICSLYQLENYCG
modifications: ends and bridges not checked; cysteine pairing not given here
B2: SEQ ID NO: 7 (ligand)
chain: B1 chain with D3G
modifications: ends and bridges not checked; cysteine pairing not given here

Biological target: IGF1 receptor (IGF1R) (UniProt P08069)
Assay: method not stated; in the absence of glucose

| Binder | Kd [nM] |
| --- | --- |
| B1 | 30.4 |
| B2 | 26.8 |
